Reference: patent publication US20220315663A1 (published 2022)

Molecular target: T1, cynomolgus monkey CD79b antigen (cynomolgus monkey)
T1 construct: also called cyno CD79b; CD9W1.001
Experiment: SPR, cyno CD79b against human CD79b (refers to Table 32)

B1: C923B38 (trispecific antibody, human IgG1, kappa, L234A L235A)
heavy: QVQLQESGPGLVKPSETLSLTCSVSGASISSFYWSWIRQPADEGLEWIGRISPSGKTNYIPSLKSRIIMSLDASKNQFSLRLNSVTAADTAMYYCARGEYSGTYSYSFDVWGQGTMVTVSSASTKGPSVFPLAPSSKSTSGGTAALGCLVKDYFPEPVTVSWNSGALTSGVHTFPAVLQSSGLYSLSSVVTVPSSSLGTQTYICNVNHKPSNTKVDKKVEPKSCDKTHTCPPCPAPEAAGGPSVFLFPPKPKDTLMISRTPEVTCVVVSVSHEDPEVKFNWYVDGVEVHNAKTKPREEQYNSTYRVVSVLTVLHQDWLNGKEYKCKVSNKALPAPIEKTISKAKGQPREPQVYTLPPSREEMTKNQVSLSCAVKGFYPSDIAVEWESNGQPENNYKTTPPVLDSDGSFFLVSKLTVDKSRWQQGNVFSCSVMHEALHNRFTQKSLSLSPGK
light: DIVMTQSPLSLSVTPGEPASISCRSSESLLDSEDGNTYLDWFLQKPGQSPQLLIYTLSYRASGVPDRFSGSGSDTDFTLHISSLEAEDVGLYYCMQRMEFPLTFGQGTKVEIKRTVAAPSVFIFPPSDEQLKSGTASVVCLLNNFYPREAKVQWKVDNALQSGNSQESVTEQDSKDSTYSLSSTLTLSKADYEKHKVYACEVTHQGLSSPVTKSFNRGEC
chain: EIVLTQSPATLSASPGERVTLSCSASSSVSYMNWYQQKPGQAPRRWIYDSSKLASGVPARFSGSGSGRDYTLTISSLEPEDFAVYYCQQWSRNPPTFGGGTKVEIKGGSEGKSSGSGSESKSTGGSQVQLVQSGAEVKKPGSSVKVSCKASGYTFTRSTMHWVKQAPGQGLEWIGYINPSSAYTNYNQKFQGRVTLTADKSTSTAYMELSSLRSEDTAVYYCASPQVHYDYAGFPYWGQGTLVTVSSEPKSSDKTHTCPPCPAPEAAGGPSVFLFPPKPKDTLMISRTPEVTCVVVSVSHEDPEVKFNWYVDGVEVHNAKTKPREEQYNSTYRVVSVLTVLHQDWLNGKEYKCKVSNKALPAPIEKTISKAKGQPREPQVYTLPPSREEMTKNQVSLWCLVKGFYPSDIAVEWESNGQPENNYKTTPPVLDSDGSFFLYSKLTVDKSRWQQGNVFSCSVMHEALHNHYTQKSLSLSPGKGGSEGKSSGSGSESKSTGGSAIQLTQSPSSLSASVGDRVTITCRASSSVSYIHWFQQKPGKAPKPLIYATSNLASGVPSRFSGSGSGTDFTLTISSLQPEDFATYYCQQWTSNPPTFGQGTKLEIKGGSEGKSSGSGSESKSTGGSQVQLVQSGAEVKKPGSSVKVSCKASGYTFTSYNMHWVRQAPGQGLEWMGAIYPGNGDTSYAQKFQGRVTITADKSTSTAYMELSSLRSEDTAVYYCARSTYYGGDWYFNVWGQGTLVTVSS
notes: IgG1 trispecific: Fab to CD79b; second chain carries the CD3 scFv, the Fc and the CD20 scFv; also called CD79b×CD20×CD3 trispecific antibody
fold weaker affinity compared to human: > 10000 fold
